Patent US20240083986A1

B1: H4H16946P (antibody, human IgG4, V domains shown)
VH: EVQLVESGGGLVQPGGSLRLSCVASGFTFSNYDMNWVRQAPGEGLEWISYISYSDHNIYYIDSVKGRFTISRDNAKNSLYLQMNSLRAEDTAIYYCAREALASSSFDYWGQGTLVTVSS
VL: EIVMTQSPATLSVSPGERVTLSCRASQSVSGNLAWYQQKPGQAPRLLIYSASTGATGVPARFSGSGSGTEFTLTISSLQSEDFALYYCQQYNKWPRTIGQGTKVEIK
B2: H4H16950P (antibody, human IgG4, V domains shown)
VH: QVQLVQSGAEVKKPGASVKVSCKTSGYTFTNYGITWVRQAPGQGLEWMGWISAYNGNTNYAQNVQGRVTMTTDTSTSTAYMEVRSLRSDDTAVYYCARRSSMLHFQHWGQGTLVTVSS
VL: DIVMTQSPDSLAVSLGERATINCKSSQHVLYDSSNENYLAWFQQKPGQPPKLLIYWASTRESGVPDRFSGSGSGTDFTLTISSLQAEDVAVYYCQQYSSAPYTFGQGTKLEIK
B3: H4H16960P (antibody, human IgG4, V domains shown)
VH: QLQLQESGPGLVRPSETLSLTCTVSGGSISSSNYWWGWIRQPPGKGLEWIGSIYYSGITYYNPSLKSRVTISADTSKDQFSLKLRSVTAADTAVYYCAKLEWLRLDFWGQGTTVTVSS
VL: DIQMTQSPSSVSASVGDRVTITCRASQGISSWLVWYQQKPGKVPKLLIYAASSLQSGVPLRFSGSGSGTDFTLTISSLQPEDFATYYCQQAKSFPLTFGQGTRLEIK
B4: H4H16987P (antibody, human IgG4 S228P, kappa, V domains shown)
VH: EVQLVESGGGLVQPGGSLRLSCAASGFTVSSNSMSWVRQAPGEGLEWVSVIFSGGITYYSDSVKGRFTISRHNSKNTLYLQMNSLRTEDTAVYYCARHSNWNFDAFDIWGQGTMVTVSS
VL: DIQMTQSPSSLSASVGDRVTITCRASQSFDTYLNWYQQKPGKAPNLLIYATSSLQSGVPSRFSGSGSGTDFTLTISSLQPEDFGTYYCQQSYSIPYTFGQGTKLEIKR
B5: H4H16991P (antibody, human IgG4, V domains shown)
VH: QVQLVQSGAEVRKPGASVKVSCKASGYTFTGYYLHWVRQAPGQGLEWMGLINPNTGGTNFAQKFQGRVTMTRDSSISAAYMELSRLRSDDTAVYYCARQHWNRYFDNWGQGTLVTVSS
VL: DIQMTQSPSTLSASVGDRVTITCRASQSVGNWLAWYQQKPGKAPKLLIQEASSIESGVPSRFSGSGSGTEFTLIVSSLQPDDFATYYCQQYNSYSWTFGHGTKVEIK
B6: H4H17001P (antibody, human IgG4, V domains shown)
VH: QVQLVESGGGLVKPGGSLRLSCAASGFTFSDYYMNWIRQAPGKGLEWISLISSSGSAIYYSDSVKGRFTISRDNARKSLYLQVNSLRAEDTAVYYCARDRGEWALGAYYYGLDVWGQGTTVTVSS
VL: DIVMTQSPLSLPVTPGEPASISCRSSQSLLHSDGYNYLDWYLQKSGQSPQLLIYLGSNRASGVPDRFSGSGSGTDFTLKISRMEAEDVGVYYCMQALQTPYTFGQGTKLEIK
B7: H4H17015P (antibody, human IgG4, V domains shown)
VH: QVQLQESGPGLVKPSQTLSLTCTVSGGSISSADHYWSWIRQQPGKGLEWIGYISYRGTTYYNPTLESRVSISVDTFKNQFSLMLHSVTVADTAVYYCAKVLQGLVRFRDYGFDVWGQGTTVTVSS
VL: DIQLTQSPPFLSASVGDRVTITCWASQDISSYLAWYQQNPGKSPKLLIYDAFTLHTGVPSRFSGSGSGTEFTLTISSLQPEDFATFYCQHLYSFPFTFGPGTKVDIK
B8: H4H17027P (antibody, human IgG4, V domains shown)
VH: EVQLVESGGGLVQPGGSLRLSCAASGFTFRNYAMHWVRQAPGEGLEWVAAIYRNSDSIDYADSVKGRFTISRDNAKNSLYLQMNSLKTEDTALYYCAKDEGFLEYFDSWGQGTLVTVSS
VL: EIVLTQSPGTLSLSPGERASLSCRASQSVSSSFLAWYQQKPGQAPRLLIYGVSSRFIGIPDRFSGGGSGTDFTLTITRLEPEDFAVYYCQQYGRSPWTFGQGTKVEIK
B9: H4H17028P (antibody, human IgG4, V domains shown)
VH: QVQLVESGGGVVQPGRSLRLSCAASGFTFSRYAIHWVRQAPGKGLEWVAVISYDGDDKYYGDSVKGRFTISRDNSKTMVYLHMNSLRTEDTAVYYCAKDGYSLYGKDYFDYWGQGTLVTVSS
VL: EIVLTQSPGTLPLSPGERATLSCRASQSITNSYLAWYQQKPDQAPRLLIYGASSRATGIPDRFSGSESGTDFTLTISRLEPEDFAVYYCQQYVRSPWTFGQGTKVEIK
B10: H4H17031P (antibody, human IgG4, V domains shown)
VH: QVQLQQWGAGLLKPSETLSLTCVVYGESFGNYHWNWIRQSPGKRLEWIGEINQNGHTNYNPSLKSRVTISVDTSKIQFSLRLNSVTAADTAVYFCARGHNYVNSYFGLDVWGQGTTVTVSS
VL: EIVMTQSPATLSVSPGERATLSCRTSQSVSISLAWYQRKPGQAPRLLIFGSSTRATGVPARFSGSGSGTEFTLTISSLQSEDFAVYYCQQYNNWPYTFGQGTKLEIK
B11: H4H17033P (antibody, human IgG4, V domains shown)
VH: QVQLVQSGAEVKKPGASVKVSCKASGYTFAAHYMHWVRQAPGQGLEWMGWINTYTGGTNYGQKFQGRVTMTRDTSITTAYMELSRLRSDDTAVYYCARDRRNWNFVFEYWGQGTLVTVSS
VL: DIQMTQSPSSLSASVGDRVTISCRASQNIKNYLNWYQQKPGKAPKLLIYEASNLQSGAPSRFSGSGSGTDFTLTISSLEPEDFATYYCQQSFSIPWTFGQGTKVEIK

Molecular target: Hazel (Cor A 1, MyBiosource, Cat #MBS5304600) (Hazel) (UniProt Q08407)
Test: SPR, mAb captured via anti-hFc, 25 C

Binder	100 nM Analyte Bound (RU)
B1	-1
B2	0
B3	0
B4	0
B5	0
B6	0
B7	1
B8	0
B9	0
B10	0
B11	0
